Source: US20130130989A1 (AGENCY FOR SCIENCE TECHNOLOGY AND RESEARCH, published 2013)
Square brackets hold non-standard residues; d marks the D form. Ends that are not written are not given here. αMeF = C[C@](N)(Cc1ccccc1)C(=O)O; Ac5c = NC1(C(=O)O)CCCC1; Aib = CC(C)(N)C(=O)O

B1: Tr3 (peptide)
peptide: YDREFLLGFQ-NH2
B2: Tr2_me5-1 peptide (YDRE*LL5FQF) (peptide)
peptide: YDREXLLXFQF
modifications: not fully specified; Cα-methyl-L-phenylalanine at position 628; 1-aminocyclopentanecarboxylic acid (A5C) at position 631
notes: also called truncated modified Tr2_me5-1 peptide
B3: Tr2_AIB4 peptide (peptide)
peptide: YDREFLLGF[Aib]F
modifications: not fully specified (C-terminus)
B4: Tr2_AIB3_A3C (peptide)
peptide: YDREFLLXFQF
modifications: position 631 (printed '3') = 1-amino cyclopropanoic acid; C-terminal amide (-NH2)
B5: Tr2_AIB2 peptide (peptide)
peptide: YDR[Aib]FLLGFQF
modifications: not fully specified (C-terminus)
B6: Tr1 (peptide)
peptide: KKRYDREFLL-NH2
B7: Tr2_AIB1 peptide (peptide)
peptide: Y[Aib]REFLLGFQF
modifications: not fully specified (C-terminus)
B8: Tr2_AIB3 peptide (peptide)
peptide: YDREFLLXFQF
modifications: not fully specified; G631 replaced with aminoisobutyric acid (Aib)
B9: Tr2_ALA_A5C4 (Tr2_AIB3_A5C with F628 replaced with alanine) (peptide)
peptide: YDREALL[Ac5c]FQF
modifications: not fully specified (C-terminus)
notes: 29=625, 30=626, 31=627, 34=633)
B10: Tr2_ALA_A5C7 (Tr2_AIB3_A5C with F634 replaced with alanine) (peptide)
peptide: YDREFLL[Ac5c]FQA
modifications: not fully specified (C-terminus)
B11: Tr2_ALA_A5C1 (Tr2_AIB3_A5C with alanine at position 625) (peptide)
peptide: YAREFLL[Ac5c]FQF
modifications: not fully specified (C-terminus)
B12: Tr2_ALA_A5C5 (Tr2_AIB3_A5C with F632 replaced with alanine) (peptide)
peptide: YDREFLL[Ac5c]AQF
modifications: not fully specified (C-terminus)
B13: Tr2_ALA_A5C2 (Tr2_AIB3_A5C with R626 replaced with alanine) (peptide)
peptide: YDAEFLL[Ac5c]FQF
modifications: not fully specified (C-terminus)
B14: Tr2_ALA_A5C6 (Tr2_AIB3_A5C with alanine at position 633) (peptide)
peptide: YDREFLL[Ac5c]FAF
modifications: not fully specified (C-terminus)
B15: Tr2_ALA_A5C3 (Tr2_AIB3_A5C with alanine at position 627) (peptide)
peptide: YDRAFLL[Ac5c]FQF
modifications: not fully specified (C-terminus)
B16: Tr2_me5_3 (peptide)
peptide: YDREFLLXFQX
modifications: position 631 (printed '5') = 1-amino cyclopentanoic acid; position 634 (printed '*') = Cα-Me-L-Phenylalanine; C-terminal amide (-NH2)
B17: TAT peptide (YGRKKRRQRRR) (peptide)
peptide: YGRKKRRQRRR
notes: also called TAT tag
B18: Tr2_AIB3_A4C (peptide)
peptide: YDREFLLXFQF
modifications: position 631 (printed '4') = 1-amino cyclobutanoic acid; C-terminal amide (-NH2)
B19: TAT_eIF4G1 peptide (peptide)
peptide: YGRKKRRQRRRGTKKRYDREFLLGFQF
notes: also called eIF4G1 TAT fused peptide
B20: eIF4G1_me5 peptide (KKRYDRE*LL5FQF) (peptide)
peptide: KKRYDRE[αMeF]LL[Ac5c]FQF
modifications: not fully specified (C-terminus)
notes: also called modified 14mer eIF4G1_me5 peptide; helically stabilized peptide
B21: TAT_eIF4G1_me5 peptide (YGRKKRRQRRRGTKKRYDRE*LL5FQF) (peptide)
peptide: YGRKKRRQRRRGTKKRYDRE[αMeF]LL[Ac5c]FQF
B22: Tr2 peptide (truncated 11mer eIF4G1 peptide) (peptide)
peptide: YDREFLLGFQF
modifications: not fully specified (C-terminus)
notes: also called truncated Tr2
B23: 11mer (control) peptide with the conserved tyrosine mutated to alanine (peptide)
peptide: ADREFLLGFQF
modifications: not fully specified (C-terminus)
B24: Tr2_AIB3_ALA (peptide)
peptide: YDREFLLAFQF-NH2
modifications: not fully specified

Columns and labels:
[1] = molecular target: eukaryotic translation initiation factor 4E (eIF4E), full length human (human) (UniProt P06730); experiment: Kd estimated from FTS thermal shift
[2] = molecular target: eukaryotic translation initiation factor 4E (eIF4E), full length human (human) (UniProt P06730); experiment: fluorescence-based thermal shift assay (FTS), Sypro Red, 10 µM eIF4E, 100 µM peptide
[3] = molecular target: T1, eukaryotic translation initiation factor 4E (eIF4E), full length human (human, UniProt P06730 2-217); experiment: Kd estimated from the FTS thermal shift of eIF4E (10 µM eIF4E, 200 µM peptide)
T1 construct: mature; read as P06730; also called eIF4E protein

[4] = molecular target: T1, eukaryotic translation initiation …; experiment: fluorescence-based thermal shift assay (FTS), Sypro Red, 10 µM eIF4E, 200 µM peptide (*)
Procedure: A fluorescence based thermal shift assay was used to screen and rank the rationally designed eIF4E binding derivative peptides. The fluorescent dye Sypro Red was used to monitor thermal denaturation of eIF4E. Binding of the dye molecule to eIF4E, as it unfolds due to thermal denaturation, results in a sharp increase in the fluorescence intensity. The midpoint of this transition is termed the Tₘ. The thermal shift assay was conducted in the iCycler Real Time Detection System (Bio-Rad, Hercules, Calif.). The system contains a heating/cooling device for accurate temperature control and a charge-coupled device (CCD) detector for simultaneous imaging of the fluorescence changes in the wells of the microplate.

[5] = molecular target: T1, eukaryotic translation initiation …; experiment: ITC
[6] = molecular target: T1, eukaryotic translation initiation …; experiment: ITC, peptide titrated into eIF4E, 20° C.
Procedure: (§1) ITC experiments were conducted in a VP-ITC Unit (MicroCal, Northampton, Mass.). […] The buffer used for dialysis of the protein was used to dilute the peptides to their final working concentration. The protein buffer solution was matched to the peptide solution by the addition of DMSO in the case of the non TAT fused peptides. The titration experiments were performed at 20° C. with an initial 2 μl injection with duration of 4 s, fooled by 28 10 μl injections with a duration of 7.1 s. The spacing between each injection was 150 s. The stirring speed during the titration was 290 rpm. Data was analyzed using Microcal Origin software by fitting to a single-site binding model. Correction for the enthalpy of ligand dilution was carried out by subtracting a linear fit from the last three data points of the titration, after the interaction had reached saturation.

[7] = molecular target: T1, eukaryotic translation initiation …; experiment: Kd estimated from the FTS thermal shift of eIF4E (10 µM eIF4E, 100 µM peptide)
Procedure: A fluorescence based thermal shift assay was used to screen and rank the rationally designed eIF4E binding derivative peptides. The fluorescent dye Sypro Red was used to monitor thermal denaturation of eIF4E. Binding of the dye molecule to eIF4E, as it unfolds due to thermal denaturation, results in a sharp increase in the fluorescence intensity. The midpoint of this transition is termed the Tₘ. The thermal shift assay was conducted in the iCycler Real Time Detection System (Bio-Rad, Hercules, Calif.).

[8] = molecular target: T1, eukaryotic translation initiation …; experiment: fluorescence-based thermal shift assay (FTS), Sypro Red, 10 µM eIF4E, 100 µM peptide
Procedure: The fluorescent dye Sypro Red was used to monitor thermal denaturation of eIF4E. Binding of the dye molecule to eIF4E, as it unfolds due to thermal denaturation, results in a sharp increase in the fluorescence intensity. The midpoint of this transition is termed the Tₘ. The thermal shift assay was conducted in the iCycler Real Time Detection System (Bio-Rad, Hercules, Calif.). The system contains a heating/cooling device for accurate temperature control and a charge-coupled device (CCD) detector for simultaneous imaging of the fluorescence changes in the wells of the microplate. […] The final protein concentration was 10 μM. Protein samples were incubated with derivative peptides at a concentration of a 100 μM. The plate was heated from 20 to 90° C. with a heating rate of 1° C./min.

[9] = molecular target: T1, eukaryotic translation initiation …; experiment: ITC, peptide titrated into eIF4E, 20 °C, PBS, one-to-one binding model; entropy calculated; design: unit not given here
[10] = molecular target: T1, eukaryotic translation initiation …; experiment: fluorescence-based thermal stability assay (FTS)
[11] = molecular target: T1, eukaryotic translation initiation …; experiment: ITC, apparent Kd
[12] = molecular target: T1, eukaryotic translation initiation …; experiment: ITC, peptide titrated into eIF4E, 20 °C, PBS, one-to-one binding model; design: unit not given here
[13] = molecular target: T1, eukaryotic translation initiation …; experiment: ITC, peptide titrated into eIF4E, 20 °C, PBS, one-to-one binding model; entropy calculated
[14] = molecular target: T1, eukaryotic translation initiation …; experiment: FTS thermal shift assay
[15] = molecular target: T1, eukaryotic translation initiation …; experiment: ITC, apparent Kd against the template peptide
Procedure: as §1

[16] = molecular target: T1, eukaryotic translation initiation …; experiment: ITC, peptide titrated into eIF4E, 20 °C, PBS, one-to-one binding model
Procedure: as §1

T1 sequence (P06730 2-217): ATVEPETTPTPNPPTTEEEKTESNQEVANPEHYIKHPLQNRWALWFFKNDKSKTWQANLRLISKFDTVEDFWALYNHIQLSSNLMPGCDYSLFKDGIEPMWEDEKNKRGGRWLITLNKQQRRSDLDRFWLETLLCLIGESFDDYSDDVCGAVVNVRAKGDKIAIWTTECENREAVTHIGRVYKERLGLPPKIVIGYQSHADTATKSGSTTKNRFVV
Chain of eukaryotic translation initiation factor 4E (eIF4E), full length human (human) (P06730 2-217): as above

Row | Molecule | Kd [7] [nM] | ΔT (°C) [8] [°C] | further results
1 | Tr2_AIB3_A5C peptide (YDREFLL5FQF) | – | – | Kd [1]: 1450 nM; ΔT (°C) [2]: 6.6 °C
2 | B1 | – | – | Kd [3]: 35200 nM; ΔT (°C) [4]: 2.25 °C
3 | B2 | 360 | 8.8 | binding enthalpy [5]: -16.1 kcal/mol; Kd [6]: 146 nM; -TΔS [9]: -6.89
4 | B3 | 25100 | 1.52 | –
5 | B4 | 2500 | 5.67 | –
6 | B5 | – | – | binding result [8]: no binding (tested: 100 µM)
7 | B6 | – | – | Kd [3]: 50200 nM; ΔT (°C) [4]: 1.7 °C
8 | B7 | 29800 | 1.32 | –
9 | B8 | 3050 | 5.42 | –
10 | B9 | 8090 | 3.72 | –
11 | B10 | 2900 | 5.48 | –
12 | B11 | 760 | 5.02 | –
13 | B12 | 8400 | 3.65 | –
14 | B13 | 14300 | 2.69 | –
15 | B14 | 1370 | 6.72 | –
16 | B15 | 1220 | 4.22 | –
17 | B16 | 2400 | 5.8 | –
18 | B17 | – | – | binding result [10]: no binding
19 | B18 | 2350 | 5.8 | –
20 | B19 | – | – | fold lower Kd than the shorter parent peptide (eIF4G1) [5]: ~2.7 fold; Kd [11]: 56.2 nM; ΔH [12]: -5.52; ΔS [13]: 15 Cal mol-1K-1
21 | B20 | 7 | 14.6 | binding enthalpy [5]: -14.4 kcal/mol; ΔΔG against the template peptide (eIF4G1) [5]: ~1.6 kcal/mol; fold increase in thermal shift over the original 14-mer eIF4G1 peptide [14]: 1.7 fold; thermal shift in the melting temperature of eIF4E [14]: ~14 ° C.; Kd [6]: 9.43 nM; fold more potent than the template peptide (eIF4G1) [15]: ~15.7 fold; -TΔS [9]: -3.69
22 | B21 | – | – | Kd [11]: 10.2 nM; thermal shift in the Tm of eIF4E greater than that of the TAT_eIF4G1 peptide [14]: ~0.82 ° C.; ΔH [12]: -12.4; ΔS [13]: -5.69 Cal mol-1K-1
23 | B22 | 5960 | 4.2 | binding enthalpy [5]: -10.9 kcal/mol; Kd [6]: 1040 nM; Kd [16]: 1010 nM; -TΔS [9]: -2.91
24 | B23 | – | – | binding result [4]: no binding (tested: 200 µM); ΔT (°C) [4]: 0.65 °C
25 | B24 | 2550 | 5.6 | –
